The record followed here is patent US20120309939A1 (Scripps Research, published 2012).

The target of this assay is T1, human VEGF-R2(KDR):Fc fusion protein (R&D Systems) (human, UniProt P35968 20-764).
T1 construct: Bought reagent, coated on Maxisorp plates; also called VEGF receptor; human VEGF receptor; not shown: Fc part of the bought fusion
Put plainly: ELISA on plates coated with VEGF-R2(KDR):Fc; bound VEGF detected with biotinylated anti-VEGF.

T1 sequence (P35968 20-764 limits assumed): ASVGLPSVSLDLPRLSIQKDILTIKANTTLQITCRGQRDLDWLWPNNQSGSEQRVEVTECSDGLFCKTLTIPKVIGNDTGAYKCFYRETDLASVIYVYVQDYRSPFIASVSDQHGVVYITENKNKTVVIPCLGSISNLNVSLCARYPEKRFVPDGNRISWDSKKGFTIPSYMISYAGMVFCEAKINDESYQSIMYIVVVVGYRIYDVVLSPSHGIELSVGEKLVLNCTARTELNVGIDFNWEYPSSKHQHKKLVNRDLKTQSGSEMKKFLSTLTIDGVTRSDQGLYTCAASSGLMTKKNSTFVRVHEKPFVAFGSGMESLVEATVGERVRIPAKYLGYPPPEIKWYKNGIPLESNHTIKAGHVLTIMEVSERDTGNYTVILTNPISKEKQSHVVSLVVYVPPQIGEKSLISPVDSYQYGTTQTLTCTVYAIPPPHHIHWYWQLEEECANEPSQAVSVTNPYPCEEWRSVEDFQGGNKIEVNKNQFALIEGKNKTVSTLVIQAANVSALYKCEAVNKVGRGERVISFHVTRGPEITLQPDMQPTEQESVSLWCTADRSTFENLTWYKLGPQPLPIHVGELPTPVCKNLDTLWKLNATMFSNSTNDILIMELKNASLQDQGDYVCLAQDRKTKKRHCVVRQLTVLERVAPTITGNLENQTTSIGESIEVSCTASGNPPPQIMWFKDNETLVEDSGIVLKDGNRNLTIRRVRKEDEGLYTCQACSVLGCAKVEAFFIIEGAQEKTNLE

B1: algal-expressed human vascular endothelial growth factor (VEGF) isoform 121, without signal peptide, with C-terminal FLAG-tag, made in the C. reinhardtii … (ligand)
chain: MVPAPMAEGGGQNHHEVVKFMDVYQRSYCHPIETLVDIFQEYPDEIEYIFKPSCVPLMRCGGCCNDEGLECVPTEESNITMQIMRIKPHQGQHIGEMSFLQHNKCECRPKKDRARQENCDKPRRGTGENLYFQGSGGGGSDYKDDDDKGTG
notes: Native VEGF is active as a dimer; also called algal VEGF; algae-derived VEGF
For the molecule B1, the binding result is listed as “binds”.
